The text below walks through data of patent US20190023770A1 (Genentech, published 2019).

First the molecules themselves.
B1: monoclonal antibody mAb9 01F3 (antibody, V domains shown)
VH: QVQLVQSGAEVKQPGASVKVSCKASGYTFNAYYIHWVRQAPGQGLEWMGWINPNFGGTHYARKFQGRVTMTRDASINTAYMELDRLISDDTAVYYCVRWRAAAVIMDQFYKMDVWGQGTLVTVSS
VL: SSELTQPPSASGTPGQRVTISCSGSTSNIGYNPVSWYQQVPGTAPKLLIYSNTERPSGVPDRFSGSKSGTSASLAISGLQSEDEADYYCAAWDDTLNGPVFGGGTKVTVL
B2: monoclonal antibody mAb23 06C2 (antibody, V domains shown)
VH: QVQLQESGPGLVKPSETLSLTCTVSGGLIGTGSYYWGWIRQTPGKGMEWIGSISYSGSTYYHPSLKSRVTISDDTSKNQLFLKLRSVTAADTAQYYCARYNWGIRYFDFWGRGTLVTVSS
VL: DIQLTQSPLSPPVTLGQPASISCRSSQSLLYTDGFTYLSWYHQRPGQSPRRLIYKISNRDSGVPDRFSGSGSGTDFTLKISRVEAEDVGVYYCMQATHWPLTFGEGTKVEIK
B3: monoclonal antibody 36.89 (antibody, V domains shown)
VH: QVQLVQSGAELKRPGASVKVSCKTSGYSFNNYGINWVRQAPGQGLEWMGWISAYTGNTHYAKNFEGRVTLTTDTSTSTAYMEVRSLRSDDSAVYFCARAMIQGVVTLYLRPGDYWGQGTLVTVSS
VL: DIVMTQSPSTLSASVGDRVTITCRASQSIGNWLAWYQQKPGKAPKLLIYKVSTLESGVPSRFSGSGSGTEFTLTINSLQPDDFATYYCQRYTSNSQGFTFGQGTKLEIK

The first test addresses recombinant hemagglutinin H3 from influenza A virus A/Hong Kong/8/1968 (influenza A virus A/Hong Kong/8/1968, UniProt Q91MA7 17-530).
As for B1, the half-maximal effective concentration (EC50) (commonly the concentration that produces a half-maximal response) came to 8.42 nM.
Same read-out and setting: then B2, with 1.84 nM; and B3, with 1.32 nM.

For another test, the target named is recombinant hemagglutinin H1 from influenza A virus A/NWS/1933 (influenza A virus A/NWS/1933 (printed …, UniProt P03454 18-528)).
On to B1, for which the EC50 was above 200 nM.
As to B2, the EC50 was above 200 nM.
The same measure, in the same setting: then B3, with above 200 nM.
